Reference: article PMC9352551, “Energetic determinants of animal cell polarity regulator Par-3 interaction with the Par complex” (The Journal of Biological Chemistry, 2022)

B1: MBP-Par-3 PDZ1-APM (domain or fragment, Drosophila, UniProt O96782 309-987, looked up)
chain: DGEMLLIINEYGSPLGLTALPDKEHGGGLLVQHVEPGSRAERGQLRRDDRILEINGIKLIGLTESQVQEQLRRALESSELRVRVLRGDRNRRQQRDSKVADMVEVATVSPTRKPHAAPVGTSLQVANTRKLGRKIQIMLKKGPNGLGFSVTTRDNPAGAHCPIYIKNILPRGAAIEDGRLKPGDRLLEVDGTPMTGKTQTDVVAILRGMPAGATVRIVVSRQQELAEQADQPAEKSAGVAVAPSVAPPAVPAAAAPAPPIPVQKSSSARSLFTHQQQSQLNESQHFIDAGSESAASNDSLPPSSNSWHSREELTLHIPVHDTEKAGLGVSVKGKTCSNLNASGSSASSGSNGLMKHDGDLGIFVKNVIHGGAASRDGRLRMNDQLLSVNGVSLRGQNNAEAMETLRRAMVNTPGKHPGTITLLVGRKILRSASSSDILDHSNSHSHSHSNSSGGSNSNGSGNNNNSSSNASDNSGATVIYLSPEKREQRCNGGGGGGSAGNEMNRWSNPVLDRLTGGICSSNSAQPSSQQSHQQQPHPSQQQQQQRRLPAAPVCSSAALRNESYYMATNDNWSPAQMHLMTAHGNTALLIEDDAEPMSPTLPARPHDGQHCNTSSANPSQNLAVGNQGPPINTVPGTPSTSSNFDATYSSQLSLETNSGVEHFSRDALGRRSISEKHHA
notes: Par-3 (Bazooka), Drosophila, residues 309-987 (PDZ1 to the aPKC phosphorylation motif); From pMAL; construct as in PMID 32084408; not shown: MBP, N-terminal, kept; His tag, C-terminal, kept

Columns and labels:
Settings in all cases: both partners purified
[1] = molecular target: T1, Par complex Par-6ΔPBM (Drosophila, UniProt O97111 1-343; A1Z9X0 1-606); assay: supernatant depletion assay; MBP-Par-3 (C-terminal his-tag, his-purified) on amylose resin (solid phase); soluble protein left in the supernatant quantified on a Coomassie gel; 10 min at 20 °C; 10 mM Hepes pH 7.5, 100 mM NaCl, 1 mM DTT, 200 μM ATP, 5 mM MgCl2, 0.1% Tween-20; 'apparent'
T1 construct: aPKC, Drosophila, residues 1-606; Construct as in PMID 32084408; also called Par complex lacking the Par-6 PBM; Par-6ΔPBM/aPKC; source: HEK 293F, transfected (pCMV), purified (Ni-NTA or cobalt resin, Source Q anion exchange)
T1 sequence (looked up) 1: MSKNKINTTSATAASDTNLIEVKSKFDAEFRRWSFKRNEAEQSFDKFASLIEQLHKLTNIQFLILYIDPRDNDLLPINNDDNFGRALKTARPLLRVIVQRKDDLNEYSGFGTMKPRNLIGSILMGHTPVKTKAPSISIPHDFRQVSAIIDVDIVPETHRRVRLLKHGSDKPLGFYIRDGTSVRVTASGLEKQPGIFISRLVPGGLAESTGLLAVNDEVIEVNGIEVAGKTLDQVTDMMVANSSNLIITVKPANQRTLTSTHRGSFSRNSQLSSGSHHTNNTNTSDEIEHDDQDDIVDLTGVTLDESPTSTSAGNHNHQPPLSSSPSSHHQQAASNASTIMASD
T1 sequence (looked up) 2: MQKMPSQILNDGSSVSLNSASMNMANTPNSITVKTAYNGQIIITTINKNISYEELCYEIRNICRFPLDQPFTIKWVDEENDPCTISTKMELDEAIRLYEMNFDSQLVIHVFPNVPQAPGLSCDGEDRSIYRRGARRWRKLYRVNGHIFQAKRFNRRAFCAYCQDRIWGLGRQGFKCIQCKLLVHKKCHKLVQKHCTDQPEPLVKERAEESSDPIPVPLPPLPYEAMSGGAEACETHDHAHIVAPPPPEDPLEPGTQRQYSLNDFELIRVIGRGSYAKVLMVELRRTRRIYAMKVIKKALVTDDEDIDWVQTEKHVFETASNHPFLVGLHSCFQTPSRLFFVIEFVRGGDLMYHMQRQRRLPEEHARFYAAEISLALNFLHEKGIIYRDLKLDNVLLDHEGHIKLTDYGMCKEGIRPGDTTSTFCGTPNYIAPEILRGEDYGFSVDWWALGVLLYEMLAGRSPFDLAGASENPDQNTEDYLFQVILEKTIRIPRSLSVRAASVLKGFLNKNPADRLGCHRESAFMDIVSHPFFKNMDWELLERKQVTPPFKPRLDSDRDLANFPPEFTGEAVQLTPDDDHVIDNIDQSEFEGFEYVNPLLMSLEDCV

[2] = molecular target: T2, Par complex (his-Par-6, aPKC) (Drosophila, UniProt O97111 1-351; A1Z9X0 1-606); assay: as above
T2 construct: Par-6, Drosophila, residues 1-351; atypical protein kinase C (aPKC), Drosophila, residues 1-606; Construct as in PMID 32084408; also called full Par complex; source: HEK 293F, transfected (pCMV), purified (Ni-NTA or cobalt resin, Source Q anion exchange)
T2 sequence (looked up) 1: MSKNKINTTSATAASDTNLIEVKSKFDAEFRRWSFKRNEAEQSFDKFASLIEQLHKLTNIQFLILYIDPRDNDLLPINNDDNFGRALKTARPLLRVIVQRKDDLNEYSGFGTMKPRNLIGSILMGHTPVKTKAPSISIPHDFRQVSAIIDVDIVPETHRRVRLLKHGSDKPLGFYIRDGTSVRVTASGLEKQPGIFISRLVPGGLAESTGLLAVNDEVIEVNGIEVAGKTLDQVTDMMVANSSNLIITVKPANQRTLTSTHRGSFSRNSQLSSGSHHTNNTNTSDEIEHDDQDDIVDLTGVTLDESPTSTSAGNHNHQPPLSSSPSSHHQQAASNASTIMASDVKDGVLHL
T2 sequence (looked up) 2: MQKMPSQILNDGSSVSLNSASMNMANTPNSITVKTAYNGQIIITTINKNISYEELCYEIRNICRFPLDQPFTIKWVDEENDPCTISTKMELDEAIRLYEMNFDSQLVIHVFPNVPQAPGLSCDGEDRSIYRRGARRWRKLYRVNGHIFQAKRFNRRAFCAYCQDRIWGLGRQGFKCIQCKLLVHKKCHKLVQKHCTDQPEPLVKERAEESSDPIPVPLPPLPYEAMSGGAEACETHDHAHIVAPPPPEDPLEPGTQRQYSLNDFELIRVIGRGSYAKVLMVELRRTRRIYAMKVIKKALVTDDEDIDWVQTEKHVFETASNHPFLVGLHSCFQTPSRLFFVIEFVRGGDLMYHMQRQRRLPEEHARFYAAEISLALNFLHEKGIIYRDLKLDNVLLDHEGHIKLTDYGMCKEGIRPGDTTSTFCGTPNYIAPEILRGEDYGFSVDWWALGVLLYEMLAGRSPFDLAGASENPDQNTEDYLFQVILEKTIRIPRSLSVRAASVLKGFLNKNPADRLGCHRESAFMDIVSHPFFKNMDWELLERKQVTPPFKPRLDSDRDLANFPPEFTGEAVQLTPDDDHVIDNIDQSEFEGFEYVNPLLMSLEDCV

[3] = molecular target: B1; assay: pull-down; GST-aPKC PBM on glutathione resin with Par-3 PDZ1-APM and the Par complex as soluble proteins; room temperature, 30 to 60 min; 10 mM Hepes pH 7.5, 100 mM NaCl, 1 mM DTT, 200 μM ATP, 5 mM MgCl2, 0.1% Tween-20; Coomassie gel
[4] = molecular target: T3, Par-3 PDZ3 (his-purified, soluble) (Drosophila, UniProt O96782 616-741); assay: supernatant depletion assay; GST-fused protein on glutathione agarose resin (solid phase, 'ligand'); soluble protein ('receptor') left in the supernatant at equilibrium quantified on a Coomassie gel; 1 h at 20 °C; 10 mM Hepes pH 7.5, 100 mM NaCl, 1 mM DTT, 200 μM ATP, 5 mM MgCl2, 0.1% Tween-20; single-site equation; 'apparent' for Par-3 variants that could bind more than one Par complex; ATP replaced with ADP in one …
T3 construct: Par-3 (Bazooka), Drosophila, residues 616-741; From pET19; source: E. coli BL21 (DE3), his-purified
T3 sequence (looked up): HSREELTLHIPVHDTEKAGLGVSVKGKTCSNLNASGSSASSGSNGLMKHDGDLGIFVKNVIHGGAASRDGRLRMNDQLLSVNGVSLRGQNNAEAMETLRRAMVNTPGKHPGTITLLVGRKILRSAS

[5] = molecular target: T4, Par-3 PDZ2 (his-purified, soluble) (Drosophila, UniProt O96782 444-533); assay: as above
T4 construct: Par-3 (Bazooka), Drosophila, residues 444-533; From pET19; also called soluble PDZ2; source: E. coli BL21 (DE3), his-purified
T4 sequence (looked up): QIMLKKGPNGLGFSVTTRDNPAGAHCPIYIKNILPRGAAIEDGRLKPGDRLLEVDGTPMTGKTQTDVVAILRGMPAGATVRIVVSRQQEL

[6] = molecular target: B1; assay: supernatant depletion assay; MBP-Par-3 (C-terminal his-tag, his-purified) on amylose resin (solid phase); soluble protein left in the supernatant quantified on a Coomassie gel; 10 min at 20 °C; 10 mM Hepes pH 7.5, 100 mM NaCl, 1 mM DTT, 200 μM ATP, 5 mM MgCl2, 0.1% Tween-20; 'apparent'

Does B1 bind [1]?
Result: binds

Does B1 bind [2]?
Result: binds

B2: GST-aPKC PBM (domain or fragment, Drosophila, UniProt A1Z9X0 583-606, looked up)
chain: NIDQSEFEGFEYVNPLLMSLEDCV
notes: From pGEX; construct as in PMID 32084408
Does B2 bind [3]?
Result: binds

Does B2 bind [4]?
Result: binds

Does B2 bind [5]?
Result: binds

B3: aPKC KD-PBM (domain or fragment, Drosophila, UniProt A1Z9X0 259-606, looked up)
chain: YSLNDFELIRVIGRGSYAKVLMVELRRTRRIYAMKVIKKALVTDDEDIDWVQTEKHVFETASNHPFLVGLHSCFQTPSRLFFVIEFVRGGDLMYHMQRQRRLPEEHARFYAAEISLALNFLHEKGIIYRDLKLDNVLLDHEGHIKLTDYGMCKEGIRPGDTTSTFCGTPNYIAPEILRGEDYGFSVDWWALGVLLYEMLAGRSPFDLAGASENPDQNTEDYLFQVILEKTIRIPRSLSVRAASVLKGFLNKNPADRLGCHRESAFMDIVSHPFFKNMDWELLERKQVTPPFKPRLDSDRDLANFPPEFTGEAVQLTPDDDHVIDNIDQSEFEGFEYVNPLLMSLEDCV
notes: From pBH; also called his aPKC kinase domain-PBM; aPKC kinase domain–PBM; source: E. coli BL21 (DE3), his-purified (Ni-NTA) partially under denaturing conditions (8 M urea)
Does B3 bind [6]?
Result: binds
